# Laboratory results: the DeepSol protein solubility set
# Test: soluble on expression in E. coli; label from the status in PepcDB or PDB records
row,Sequence,soluble on expression in E. coli
1,GSGIIEFHVIGNSLTPKANRRVLLWLVGLQNVFSHQLPRMPKEYIARLVFDPKHKTLALIKDGRVIGGICFRMFPTQGFTEIVFCAVTSNEQVKGYGTHLMNHLKEYHIKHNILYFLTYADEYAIGYFKKQGFSKDIKVPKSRYLGYIKDYEGATLMECELNPRIPYT,soluble
2,GSHGRSRFVKKDGHCNVQFINVGEKRNETLVFSHNAVIAMRDGKLCLMWRVGNLQKSHLVEAHVRAQLLKSRITSEGEYIPLDQIDINVGFDSGIDRIFLVSPITIVHEIDEDSPLYDLSKQDIDNADFEIVVILEGMVEATAMTKQCRSSYLANEILWGHRYEPVLFEEKHYYKVDYSRFHKTYEVPNTPLCSARDLAEKKYILSNA,soluble
3,GSHMASMTGGQQMGRGSMLPRLICINDYEQHAKSVLPKSIYDYYRSGANDEETLADNIAAFSRWKLYPRMLRNVAETDLSTSVLGQRVSMPICVGATAMQRMAHVDGELATVRACQSLGTGMMLSSWATSSIEEVAEAGPEALRWLQLYIYKDREVTKKLVRQAEKMGYKAIFVTVDTPYLGNRLDDVRNRFKLPPQLRMKNFETSTLSFSPEENFGDDSGLAAYVAKAIDPSISWEDIKWLRRLTSLPIVAKGILRGDDAREAVKHGLNGILVSNHGARQLDGVPATIDVLPEIVEAVEGKVEVFLDGGVRKGTDVLKALALGAKAVFVGRPIVWGLAFQGEKGVQDVLEILKEEFRLAMALSGCQNVKVIDKTLVRKNPLAVSKI,soluble
4,GSHMASMTGGQQMGRGSMTQDEMKKAAGWAALKYVEKGSIVGVGTGSTVNHFIDALGTMSEEIKGAVSSSVASTEKLEALGIKIFDCNEVASLDIYVDGADEINADREMIKGGGAALTREKIVAAIADKFICIVDGTKAVDVLGTFPLPVEVIPMARSYVARQLVKLGGDPCYREGVITDNGNVILDVYGMKITNPKQLEDQINAIPGVVTVGLFAHRGADVVITGTPEGAKIEE,soluble
5,GSHMDTSLAEEVQQTMATLAPNRFFFMSPYRSFTTSGCFARFDEPAVNGDSPDSPFQQKLAALFADAKAQGIKNPVMVGAIPFDPRQPSSLYIPESWQSFSRQEKQASARRFTRSQSLNVVERQAIPEQTTFEQMVARAAALTATPQVDKVVLSRLIDITTDAAIDSGVLLERLIAQNPVSYNFHVPLADGGVLLGASPELLLRKDGERFSSIPLAGSARRQPDEVLDREAGNRLLASEKDRHEHELVTQAMKEVLRERSSELHVPSSPQLITTPTLWHLATPFEGKANSQENALTLACLLHPTPALSGFPHQAATQVIAELEPFDRELFGGIVGWCDSEGNGEWVVTIRCAKLRENQVRLFAGAGIVPASSPLGEWRETGVKLSTMLNVFGLH,soluble
6,GSHMEEAKGPVKHVLLASFKDGVSPEKIEELIKGYANLVNLIEPMKAFHWGKDVSIENLHQGYTHIFESTFESKEAVAEYIAHPAHVEFATIFLGSLDKVLVIDYKPTSVSL,soluble
7,GSHMFYAVRRGRKTGVFLTWNECRAQVDRFPAARFKKFATEDEAWAFVRKSAS,soluble
8,GSHMGFLSGKRILVTGVASKLSIAYGIAQAMHREGAELAFTYQNDKLKGRVEEFAAQLGSDIVLQCDVAEDASIDTMFAELGKVWPKFDGFVHSIGFAPGDQLDGDYVNAVTREGFKIAHDISSYSFVAMAKACRSMLNPGSALLTLSYLGAERAIPNYNVMGLAKASLEANVRYMANAMGPEGVRVNAISAGPIRTLAASGIKDFRKMLAHCEAVTPIRRTVTIEDVGNSAAFLCSDLSAGISGEVVHVDGGFSIAAMNELELK,soluble
9,GSHMGRSQKVSQMTKVETRLEILDVTLRDGEQTRGVSFSTSEKLNIAKFLLQKLNVDRVEIASARVSKGELETVQKIMEWAATEQLTERIEILGFVDGNKTVDWIKDSGAKVLNLLTKGSLHHLEKQLGKTPKEFFTDVSFVIEYAIKSGLKINVYLEDWSNGFRNSPDYVKSLVEHLSKEHIERIFLPDTLGVLSPEETFQGVDSLIQKYPDIHFEFHGHNDYDLSVANSLQAIRAGVKGLHASINGLGERAGNTPLEALVTTIHDKSNSKTNINEIAITEASRLVEVFSGKRISANRPIVGEDVFTQTAGVHADGDKKGNLYANPILPERFGRKR,soluble
10,GSHMPTAIESCMVKFELSSSKWHMTSPKPHCVNTTSDGKLKILQSGTYLIYGQVIPVDKKYIKDNAPFVVQIYKKNDVLQTLMNDFQILPIGGVYELHAGDNIYLKFNSKDHIQKTNTYWGIILMPDLPFIS,soluble
11,GSHNATSGHEDMPVERILEAELAVEPKTESYGDMNMENSTNDPVTNICHAADKQLFTLVEWAKRIPHFSDLTLEDQVILLRAGWNELLIASFSHRSVSVQDGILLATGLHVHRSSAHSAGVGSIFDRVLTELVSKMKDMQMDKSELGCLRAIVLFNPDAKGLSNPSEVETLREKVYATLEAYTKQKYPEQPGRFAKLLLRLPALRSIGLKCLEHLFFFKLIGDTPIDTFLMEMLETPLQIT,soluble
12,GSMIKLFSLKQQKKEEEKGSSKKASAAQLRIQKDINELNLPKTCDISFSDPDDLLNFKLVICPDEGFYKSGKFVFSFKVGQGYPHDPPKVKCETMVYHPNIDLEGNVALNILREDWKPVLTINSIIYGLQYLFLEPNPEDPLNKEAAEVLQNNRRLFEQNVQRSMRGGYIGSTYFERCLK,soluble
13,GSRLNPVQLELLNKLHLETKLNAEYTFMLAEQSNWNYEVAIKGFQSSMNGIPREAFVQF,soluble
14,GSSGSSGMEAVLNELVSVEDLKNFERKFQSEQAAGSVSKSTQFEYAWCLVRSKYNEDIRRGIVLLEELLPKGSKEEQRDYVFYLAVGNYRLKEYEKALKYVRGLLQTEPQNNQAKELERLIDKAMKKSGPSSG,soluble
15,GSSHCRFYENKYPEIDDIVMVNVQQIAEMGAYVKLLEYDNIEGMILLSELSRRRIRSIQKLIRVGKNDVAVVLRVDKEKGYIDLSKRRVSSEDIIKCEEKYQKSKTVHSILRYCAEKFQIPLEELYKTIAWPLSRKFGHAYEAFKLSIIDETVWEGIEPPSKDVLDELKNYISKR,soluble
16,GSSHHHHHHDYDIPTTENLYFQGSAHRPRWTLSQVTELFEKPLLDLLFEAQQVHRQHFDPRQVQVSTLLSIKTGACPEDCKYCPQSSRYKTGLEAERLMEVEQVLESARKAKAAGSTRFCMGAAWKNPHERDMPYLEQMVQGVKAMGLEACMTLGTLSESQAQRLANAGLDYYNHNLDTSPEFYGNIITTRTYQERLDTLEKVRDAGIKVCSGGIVGLGETVKDRAGLLLQLANLPTPPESVPINMLVKVKGTPLADNDDVDAFDFIRTIAVARIMMPTSYVRLSAGREQMNEQTQAMCFMAGANSIFYGCKLLTTPNPEEDKDLQLFRKLGLNPQQTAVLAGDNEQQQRLEQALMTPDTDEYYNAAAL,soluble
17,GSSHHHHHHMLKIGSHVSMSGKKMLLAASEEAVSYGATTFMIYTGAPQNTRRKPIEELNIEAGRKHMEQNGIEEIIIHAPYIINVGNTTKPETFQLGVDFLRMEIERTSALGVAKQIVLHPGAHVGAGADAGIQQIIKGLNEVLTPDQTVNIALETMAGKGTECGRSFEEIAKIIDGVKYNEKLSVCFDTCHTHDAGYDIVNNFDGVLNEFDKIVGIDRLQVLHINDSKNVRGAGKDRHENIGFGHIGYKALHHIVHHPQLTHVPKILETPYVGEDKKDKKPPYKLEIEMLKNGTFDEGLLEKIKAQ,soluble
18,GSSHHHHHHSSGRENLYFQGHMARPGMERWRDRLALVTGASGGIGAAVARALVQQGLKVVGCARTVGNIEELAAECKSAGYPGTLIPYRCDLSNEEDILSMFSAIRSQHSGVDICINNAGLARPDTLLSGSTSGWKDMFNVNVLALSICTREAYQSMKERNVDDGHIININSMSGHRVLPLSVTHFYSATKYAVTALTEGLRQELREAQTHIRATCISPGVVETQFAFKLHDKDPEKAAATYEQMKCLKPEDVAEAVIYVLSTPAHIQIGDIQMRPTGS,soluble
19,GSSSSLPLYNQQVGDCCIIRVSLDVDNGNMYKSILVTSQDKAPTVIRKAMDKHNLDEDEPEDYELLQIISEDHKLKIPENANVFYAMNSAANYDFILKKR,soluble
20,GTKQEKTILNMARFIRSQALTILEKANELDADEIADIAESIHDHADEIYRSALARFGDDGENL,soluble
21,GVALGATRVIYPEGQKQVQLAVTNNDDKSSYLIQSWIENAEGKKDARFVITPPLFSMQGKKENTLRIIDATNGQMPEDRESLFWVNVKAIPAMDKAKTGENYLQFAIVSRIKLLYRPQGLVIPPEQAPGKLEFTRENGGLTLFNPTPYYLTVTDLKAGNKSLENTMVPPQGKVTVNIPGGYTGGDITYKTINDYGALTEQVRGVVK,soluble
22,GVDGCGSVTLAYDGFNVNLLHSKVSDSLIPSEFQGEQGSVLVDMIATGRGVERILRGEEKETLTLPQTENHMFYEAEAFAKQLKLGVIDEQMKQRSLTVAKVLTEVRKQTGVVFPADQ,not soluble
23,GVSVDARIAKNVEEFLAAAQEINPSYHLISGYRSVAYQTELYNSYVQQEMADDPTLTESQAEKKVQTYSQPPGASEHQTGLAIDMSTVDSLDEADPATVAKVKKIAPKYGFVLRFPDGKTSSTGVGYEDWHFRYVGKESAEYMTEHNLTLEEYLVLLKEKTK,not soluble
24,GVTKKLKISRTATCKGCKGLGGNEGSAKECSDCRGRGIKVRVIRMGPMVQQMQSHCDSCNGEGSTFLEKDRCKKCNGKKQVKEDEI,not soluble
25,HDGIERELTIAVNNIIPGDLLVAFIRDFERQFTSTTLTVDLEVYNGCWDALYSKRADLVYGAPHAVPSSEGIISEPVGQMEWDFVVSPLHPLAAKRHPLENSELRHYPAVCIRDTSVNFPPMQAWLLEGQKPIFVPDFATAIALIE,not soluble
26,HDKVVVLEAKNGNVTFDHKKHAGVKGECKACHETEAGGKIAGMGKDWAHKTCTGCHKEMGKGPTKCGECHKK,soluble
27,HEHNISVTGGTDKIQYYLSANYLGQDGELRIGDEYSNRYTASAKINAQLSKIVSVGFNTRFIRSDYVQPTHLNESFFAEIGRQCWPTKPLYDPNGILYDDHVLQMQNGGEKQERNTWLYQQLNITVEPIKGWRLIGDLSYRYNTQYSHWDYLTVHQTGVDGKTKGNTWNNDSQVHEGTYASDYFNVNLYTDYAKTFAKSHNMKVLFGFQAEQNNYKDIAAEKLGVIYPGKPTINTSTGMDSNNQKVAPNVAGGHNRWATAGFFGRLNYDYLEKYLLEVNLRYDGSSRFRSDSRWGFFPSASVGWNIAREKFFLPVSKVVNTFKVRASYGSLGNQNTSSLYPTYSTIGTGTGSWIIDGTLANIAWAPSLVSYNLSWEKIRTWNAGVDFGLFNNRLTGSFDYYIRKTDDMVGPSEKLPVVLGTAVPSSNNTNLKTFGWELELMWKDRLNNGLNYSARFTLADSRTKITRYSNPSGLIDGFYAGKYVGEIWGYETIGIAQSDQEMAEHIGRLINGGQSNLGQDWKAGDIMYKDLNEDGKIDAGSRTLQDHGDLKRIGNSTPRYNVGLELAADWKGFDIRMFWQGTLKRDYFQGSYYFWGANGRQGPWFSTALKGHDDYFRNDEASPLGTNLNSYYPRPLFNTDKNQQSQTKYLQDASYLRLKNLQIGYSLPHNIVQKMGMQHLRIFASGENLFTITSLIDFFDPESIEGGSWGHGNVYPLSRTFSFGLNVTF,not soluble
28,HGTMEVPINRTYSCSKEGAESPKTPACQEAKRVGGTQAMYDWNGINQNPPGDNHQSVVPDGTLCGGGQAKFKGFNLARTDWPTTNIVPDAKGNFEFIYTATMPHATKYFKFYVTRNGWNPNQPLKWSDLEPFGTYNGNPPLDDKQRYHMTMKLPTGKTGRHIIYNVWKRSDSEEAFYSCSDVNFTN,not soluble
